Measurements as given in the Human Domainome abundance scans (Beltran et al. 2025).
± gives the uncertainty stated by the source.

B1: Chromodomain-helicase-DNA-binding protein 7, residues 2564 to 2605; numbered along this chain, Q9P2D1 (parent)
chain: DPDTRIPVINLEDGTRLVGEDAPKNKDLVEWLKLHPTYTVDM

Variants of: B1
Assay: abundance fitness (aPCA) (normalised: wild type 0, dead -1); higher = more abundant; growth selection in yeast, the domain comes from the species named
Conditions: Homo sapiens

Abundance fitness: each site, then its substitutions
K33: N -0.095 ± 0.078, H -0.22 ± 0.46, T -0.468 ± 0.088, D -0.01 ± 0.13, W -0.319 ± 0.079, F -0.339 ± 0.061, E -0.04 ± 0.074, C -0.4 ± 0.069, G -0.215 ± 0.071, I -0.449 ± 0.058, L -0.17 ± 0.064, V -0.261 ± 0.059, A 0.162 ± 0.12, S -0.01 ± 0.055
K24: G -0.552 ± 0.053, R -0.188 ± 0.073, S -0.206 ± 0.054, V -0.475 ± 0.058, H -0.107 ± 0.097, T -0.047 ± 0.062, Y -0.237 ± 0.07, I -0.165 ± 0.1, M 0.274 ± 0.14, W -0.426 ± 0.078, D -0.489 ± 0.072, F -0.444 ± 0.095, L -0.099 ± 0.071, C -0.094 ± 0.061, Q -0.243 ± 0.071, P -0.449 ± 0.079
D41: N -0.343 ± 0.058, V -0.793 ± 0.055, K -1.14 ± 0.35, P -0.453 ± 0.12, A -0.396 ± 0.064, L -0.594 ± 0.053, E -0.179 ± 0.079, Q -0.422 ± 0.48, C -0.531 ± 0.067, S -0.438 ± 0.057, R -0.841 ± 0.058, I -0.871 ± 0.097, T -0.586 ± 0.063, W -0.84 ± 0.2, G -0.335 ± 0.051, M -0.531 ± 0.072, H -0.364 ± 0.092
N25: Y -0.253 ± 0.094, C -0.274 ± 0.061, D -0.122 ± 0.067, A -0.206 ± 0.053, S -0.101 ± 0.082, F -0.249 ± 0.097, P -0.4 ± 0.12, I -0.326 ± 0.095, R -0.1 ± 0.07, G -0.157 ± 0.046, L -0.252 ± 0.077, M -0.086 ± 0.092, T -0.131 ± 0.076, W -0.418 ± 0.066, K 0.095 ± 0.067
W31: G -0.163 ± 0.046, D -0.128 ± 0.065, Q -0.569 ± 0.16, E -0.099 ± 0.14, V -0.336 ± 0.059, F 0.223 ± 0.094, M -0.196 ± 0.11, P -0.141 ± 0.082, T -0.398 ± 0.16, I -0.463 ± 0.086, A -0.166 ± 0.094, S -0.38 ± 0.084, L -0.492 ± 0.07, Y -0.297 ± 0.064, C -0.301 ± 0.051, R -0.363 ± 0.072
L32: N -0.342 ± 0.068, C -0.343 ± 0.079, T -0.334 ± 0.14, S -0.255 ± 0.064, F -0.375 ± 0.14, I -0.434 ± 0.093, A -0.537 ± 0.095, R -0.332 ± 0.078, W -0.574 ± 0.075, D -0.332 ± 0.12, G -0.214 ± 0.05, E -0.324 ± 0.074, V -0.586 ± 0.085
K26: T -0.361 ± 0.078, E 0.154 ± 0.16, P -0.56 ± 0.08, Y -0.481 ± 0.072, A -0.068 ± 0.072, Q -0.039 ± 0.16, W -0.639 ± 0.1, V -0.166 ± 0.059, D -0.258 ± 0.076, F -0.486 ± 0.11, G -0.208 ± 0.053, S -0.106 ± 0.054, L -0.559 ± 0.074, M -0.278 ± 0.061, N -0.276 ± 0.069, C -0.166 ± 0.056, H 0.203 ± 0.48, I -0.255 ± 0.068, R -0.081 ± 0.047
T37: M -0.082 ± 0.068, P -0.281 ± 0.1, G 0.022 ± 0.054, N -0.059 ± 0.072, A -0.131 ± 0.068, E -0.202 ± 0.089, F -0.727 ± 0.077, W -0.231 ± 0.11, H -0.014 ± 0.077, L -0.159 ± 0.073, R -0.05 ± 0.064, I -0.221 ± 0.1, Q -0.273 ± 0.14, S -0.058 ± 0.065, D -0.09 ± 0.06
D27: C -0.175 ± 0.089, N 0.019 ± 0.056, L -0.678 ± 0.076, K -0.517 ± 0.18, T -0.526 ± 0.094, F -0.405 ± 0.077, W -0.563 ± 0.073, A -0.4 ± 0.069, G -0.38 ± 0.052, S -1.11 ± 0.3, V -0.448 ± 0.068, R -0.649 ± 0.073, E -0.23 ± 0.1, Y -0.417 ± 0.1, H -0.224 ± 0.076, M -0.727 ± 0.082, I -0.438 ± 0.12, P -0.88 ± 0.1
L34: G -0.047 ± 0.045, V -0.039 ± 0.076, F -0.334 ± 0.12, M 0.011 ± 0.077, E 0.048 ± 0.07, H -0.037 ± 0.066, N -0.014 ± 0.066, I -0.417 ± 0.099, A 0.141 ± 0.077, C -0.002 ± 0.06, Y -0.251 ± 0.052, D -0.042 ± 0.1, K -0.029 ± 0.39, P -0.328 ± 0.095, T 0.03 ± 0.093
M42: P -0.569 ± 0.3, I -0.189 ± 0.097, Y -0.027 ± 0.069, H -0.04 ± 0.27, F -0.244 ± 0.087, K -0.528 ± 0.36, G -0.096 ± 0.15, W -0.438 ± 0.26, L -0.172 ± 0.07, Q 0.108 ± 0.12, V -0.065 ± 0.061, R -0.092 ± 0.3, N 0.025 ± 0.059, T 0.142 ± 0.083, A 0.132 ± 0.081, S 0.111 ± 0.06
T39: R 0.002 ± 0.06, V -0.004 ± 0.063, Y -0.347 ± 0.078, E 0.046 ± 0.078, L -0.42 ± 0.056, C -0.212 ± 0.064, W -0.835 ± 0.12, P -0.771 ± 0.11, N -0.162 ± 0.064, Q 0.006 ± 0.065, G -0.295 ± 0.06, S -0.038 ± 0.072, A -0.279 ± 0.1, I -0.158 ± 0.064, M -0.382 ± 0.11, F -0.639 ± 0.11, H -0.186 ± 0.056, K 0.076 ± 0.063
V29: S 0.063 ± 0.084, E 0.052 ± 0.1, D -0.022 ± 0.087, C -0.087 ± 0.081, P 0.063 ± 0.083, H 0.098 ± 0.073, M -0.095 ± 0.12, R 0.121 ± 0.056, I -0.15 ± 0.064, T 0.169 ± 0.14, W -0.416 ± 0.09, G -0.081 ± 0.064, N 0.126 ± 0.053, F -0.168 ± 0.069, A 0.11 ± 0.068, L -0.109 ± 0.053, K 0.229 ± 0.089
H35: N -0.064 ± 0.077, W -0.764 ± 0.092, G -0.758 ± 0.053, T -0.616 ± 0.1, F -0.744 ± 0.074, D -0.547 ± 0.1, V -0.751 ± 0.062, M -0.469 ± 0.088, L -0.866 ± 0.08, Q -0.56 ± 0.099, Y -0.593 ± 0.072, K -0.546 ± 0.14, E -0.615 ± 0.093, C -0.866 ± 0.088
V40: C -0.152 ± 0.067, D -0.295 ± 0.07, I -0.135 ± 0.071, A 0.135 ± 0.1, P -0.166 ± 0.08, E -0.238 ± 0.067, K -0.11 ± 0.054, M -0.379 ± 0.083, F -0.59 ± 0.079, Q -0.108 ± 0.097, H -0.372 ± 0.074, G -0.367 ± 0.044, T -0.08 ± 0.065, L -0.381 ± 0.048, R -0.065 ± 0.047, N -0.341 ± 0.071, S -0.144 ± 0.051
L28: N -0.524 ± 0.1, P -0.568 ± 0.11, K -0.454 ± 0.14, I -0.129 ± 0.068, T -0.355 ± 0.083, Q -0.841 ± 0.2, G -0.401 ± 0.048, A -0.292 ± 0.067, D -0.432 ± 0.056, Y -0.499 ± 0.12, H -0.134 ± 0.11, W -0.827 ± 0.079, E -0.41 ± 0.072, F -0.24 ± 0.11, S -0.39 ± 0.062, M -0.321 ± 0.06, V -0.185 ± 0.048
P36: K -0.321 ± 0.39, N -0.36 ± 0.066, C -0.78 ± 0.067, R -0.401 ± 0.07, A -0.561 ± 0.06, H -0.492 ± 0.13, W -0.731 ± 0.1, Q -0.461 ± 0.13, I -0.65 ± 0.078, G -0.484 ± 0.057, E -0.406 ± 0.071, L -0.81 ± 0.096, D -0.685 ± 0.17, S -0.457 ± 0.066
E30: W -0.529 ± 0.11, I -0.608 ± 0.12, Q -0.187 ± 0.13, N -0.065 ± 0.074, R -0.277 ± 0.072, F -0.591 ± 0.12, T -0.022 ± 0.078, P -0.345 ± 0.33, S -0.023 ± 0.059, L -0.497 ± 0.056, K -0.333 ± 0.31, V -0.391 ± 0.068, D 0.008 ± 0.063, H -0.262 ± 0.095, G -0.145 ± 0.056, C -0.253 ± 0.072, M -0.313 ± 0.1, A 0.027 ± 0.12
Y38: G -0.327 ± 0.05, D -0.278 ± 0.078, S -0.297 ± 0.076, I -1.02 ± 0.099, A -0.447 ± 0.082, C -0.445 ± 0.057, W 0.085 ± 0.12, T -0.331 ± 0.079, N -0.459 ± 0.073, F -0.128 ± 0.059, P -0.916 ± 0.46, H -0.216 ± 0.061, E -0.387 ± 0.073, L -0.632 ± 0.082, K -0.321 ± 0.11, V -0.652 ± 0.082, R -0.449 ± 0.064
